Reference: US20040023235A1 (WISTAR INSTITUTE OF ANATOMY AND BIOLOGY, published 2004)

B1: Rad50 (other, UniProt Q92878 1-1312, looked up)
chain: MSRIEKMSILGVRSFGIEDKDKQIITFFSPLTILVGPNGAGKTTIIECLKYICTGDFPPGTKGNTFVHDPKVAQETDVRAQIRLQFRDVNGELIAVQRSMVCTQKSKKTEFKTLEGVITRTKHGEKVSLSSKCAEIDREMISSLGVSKAVLNNVIFCHQEDSNWPLSEGKALKQKFDEIFSATRYIKALETLRQVRQTQGQKVKEYQMELKYLKQYKEKACEIRDQITSKEAQLTSSKEIVKSYENELDPLKNRLKEIEHNLSKIMKLDNEIKALDSRKKQMEKDNSELEEKMEKVFQGTDEQLNDLYHNHQRTVREKERKLVDCHRELEKLNKESRLLNQEKSELLVEQGRLQLQADRHQEHIRARDSLIQSLATQLELDGFERGPFSERQIKNFHKLVRERQEGEAKTANQLMNDFAEKETLKQKQIDEIRDKKTGLGRIIELKSEILSKKQNELKNVKYELQQLEGSSDRILELDQELIKAERELSKAEKNSNVETLKMEVISLQNEKADLDRTLRKLDQEMEQLNHHTTTRTQMEMLTKDKADKDEQIRKIKSRHSDELTSLLGYFPNKKQLEDWLHSKSKEINQTRDRLAKLNKELASSEQNKNHINNELKRKEEQLSSYEDKLFDVCGSQDFESDLDRLKEEIEKSSKQRAMLAGATAVYSQFITQLTDENQSCCPVCQRVFQTEAELQEVISDLQSKLRLAPDKLKSTESELKKKEKRRDEMLGLVPMRQSIIDLKEKEIPELRNKLQNVNRDIQRLKNDIEEQETLLGTIMPEEESAKVCLTDVTIMERFQMELKDVERKIAQQAAKLQGIDLDRTVQQVNQEKQEKQHKLDTVSSKIELNRKLIQDQQEQIQHLKSTTNELKSEKLQISTNLQRRQQLEEQTVELSTEVQSLYREIKDAKEQVSPLETTLEKFQQEKEELINKKNTSNKIAQDKLNDIKEKVKNIHGYMKDIENYIQDGKDDYKKQKETELNKVIAQLSECEKHKEKINEDMRLMRQDIDTQKIQERWLQDNLTLRKRNEELKEVEEERKQHLKEMGQMQVLQMKSEHQKLEENIDNIKRNHNLALGRQKGYEEEIIHFKKELREPQFRDAEEKYREMMIVMRTTELVNKDLDIYYKTLDQAIMKFHSMKMEEINKIIRDLWRSTYRGQDIEYIEIRSDADENVSASDKRRNYNYRVVMLKGDTALDMRGRCSAGQKVLASLIIRLALAETFCLNCGIIALDEPTTNLDRENIESLAHALVEIIKSRSQQRNFQLLVITHDEDFVELLGRSEYVEKFYRIKKNIDQCSEIVKCSVSSLGFNVH
notes: Member of the Mre11/Rad50/NBS complex
B2: Mre11 (other, UniProt P49959 2-708, looked up)
chain: STADALDDENTFKILVATDIHLGFMEKDAVRGNDTFVTLDEILRLAQENEVDFILLGGDLFHENKPSRKTLHTCLELLRKYCMGDRPVQFEILSDQSVNFGFSKFPWVNYQDGNLNISIPVFSIHGNHDDPTGADALCALDILSCAGFVNHFGRSMSVEKIDISPVLLQKGSTKIALYGLGSIPDERLYRMFVNKKVTMLRPKEDENSWFNLFVIHQNRSKHGSTNFIPEQFLDDFIDLVIWGHEHECKIAPTKNEQQLFYISQPGSSVVTSLSPGEAVKKHVGLLRIKGRKMNMHKIPLHTVRQFFMEDIVLANHPDIFNPDNPKVTQAIQSFCLEKIEEMLENAERERLGNSHQPEKPLVRLRVDYSGGFEPFSVLRFSQKFVDRVANPKDIIHFFRHREQKEKTGEEINFGKLITKPSEGTTLRVEDLVKQYFQTAEKNVQLSLLTERGMGEAVQEFVDKEEKDAIEELVKYQLEKTQRFLKERHIDALEDKIDEEVRRFRETRQKNTNEEDDEVREAMTRARALRSQSEESASAFSADDLMSIDLAEQMANDSDDSISAATNKGRGRGRGRRGGRGQNSASRGGSQRGRADTGLETSTRSRNSKTAVSASRNMSIIDAFKSTRQQPSRNVTTKNYSEVIEVDESDVEEDIFPTTSKTDQRWSSTSSSKIMSQSQVSKGVDFESSEDDDDDPFMNTSSLRRNRR
notes: as for B1

Biological target: T1, endogenous 53Bp1 (human p53-binding protein) from U2OS nuclear extracts (human, UniProt Q12888 1-1972)
T1 construct: Endogenous protein in nuclear extracts
Test: co-immunoprecipitation from U2OS nuclear extracts, western blot
Method: Nuclear extracts from mock treated U20S cells or cells exposed to 1 or 8 Gy gamma irradiation were prepared as described by Waterman et al, 1998 Nature Genet., 19:175-178. Endogenous 53BP1, Mre11, or p95/NBS were immunoprecipitated by binding 1 μg/reaction of monoclonal anti-53BP1, or 1 μg/reaction purified Mre11 or p95/NBS antisera (Calbiochem) in 1× IP buffer [25 mM Hepes (pH 7.4)/100 mM NaCl/5 mM MgCl₂/100 mM EDTA/0.2 mg/ml BSA/0.1% Tween-20] to protein-G sepharose beads (Amersham) for 1 hour. After washing three times with 1× IP buffer, 100 μg nuclear extract was added and proteins allowed to bind for 1 hour at 4° C. The beads were washed and the proteins resolved on 6% SDS-PAGE, transferred to PVDF membrane and were visualized by western blot using the antibodies described in Part A above.

T1 sequence (Q12888 whole entry): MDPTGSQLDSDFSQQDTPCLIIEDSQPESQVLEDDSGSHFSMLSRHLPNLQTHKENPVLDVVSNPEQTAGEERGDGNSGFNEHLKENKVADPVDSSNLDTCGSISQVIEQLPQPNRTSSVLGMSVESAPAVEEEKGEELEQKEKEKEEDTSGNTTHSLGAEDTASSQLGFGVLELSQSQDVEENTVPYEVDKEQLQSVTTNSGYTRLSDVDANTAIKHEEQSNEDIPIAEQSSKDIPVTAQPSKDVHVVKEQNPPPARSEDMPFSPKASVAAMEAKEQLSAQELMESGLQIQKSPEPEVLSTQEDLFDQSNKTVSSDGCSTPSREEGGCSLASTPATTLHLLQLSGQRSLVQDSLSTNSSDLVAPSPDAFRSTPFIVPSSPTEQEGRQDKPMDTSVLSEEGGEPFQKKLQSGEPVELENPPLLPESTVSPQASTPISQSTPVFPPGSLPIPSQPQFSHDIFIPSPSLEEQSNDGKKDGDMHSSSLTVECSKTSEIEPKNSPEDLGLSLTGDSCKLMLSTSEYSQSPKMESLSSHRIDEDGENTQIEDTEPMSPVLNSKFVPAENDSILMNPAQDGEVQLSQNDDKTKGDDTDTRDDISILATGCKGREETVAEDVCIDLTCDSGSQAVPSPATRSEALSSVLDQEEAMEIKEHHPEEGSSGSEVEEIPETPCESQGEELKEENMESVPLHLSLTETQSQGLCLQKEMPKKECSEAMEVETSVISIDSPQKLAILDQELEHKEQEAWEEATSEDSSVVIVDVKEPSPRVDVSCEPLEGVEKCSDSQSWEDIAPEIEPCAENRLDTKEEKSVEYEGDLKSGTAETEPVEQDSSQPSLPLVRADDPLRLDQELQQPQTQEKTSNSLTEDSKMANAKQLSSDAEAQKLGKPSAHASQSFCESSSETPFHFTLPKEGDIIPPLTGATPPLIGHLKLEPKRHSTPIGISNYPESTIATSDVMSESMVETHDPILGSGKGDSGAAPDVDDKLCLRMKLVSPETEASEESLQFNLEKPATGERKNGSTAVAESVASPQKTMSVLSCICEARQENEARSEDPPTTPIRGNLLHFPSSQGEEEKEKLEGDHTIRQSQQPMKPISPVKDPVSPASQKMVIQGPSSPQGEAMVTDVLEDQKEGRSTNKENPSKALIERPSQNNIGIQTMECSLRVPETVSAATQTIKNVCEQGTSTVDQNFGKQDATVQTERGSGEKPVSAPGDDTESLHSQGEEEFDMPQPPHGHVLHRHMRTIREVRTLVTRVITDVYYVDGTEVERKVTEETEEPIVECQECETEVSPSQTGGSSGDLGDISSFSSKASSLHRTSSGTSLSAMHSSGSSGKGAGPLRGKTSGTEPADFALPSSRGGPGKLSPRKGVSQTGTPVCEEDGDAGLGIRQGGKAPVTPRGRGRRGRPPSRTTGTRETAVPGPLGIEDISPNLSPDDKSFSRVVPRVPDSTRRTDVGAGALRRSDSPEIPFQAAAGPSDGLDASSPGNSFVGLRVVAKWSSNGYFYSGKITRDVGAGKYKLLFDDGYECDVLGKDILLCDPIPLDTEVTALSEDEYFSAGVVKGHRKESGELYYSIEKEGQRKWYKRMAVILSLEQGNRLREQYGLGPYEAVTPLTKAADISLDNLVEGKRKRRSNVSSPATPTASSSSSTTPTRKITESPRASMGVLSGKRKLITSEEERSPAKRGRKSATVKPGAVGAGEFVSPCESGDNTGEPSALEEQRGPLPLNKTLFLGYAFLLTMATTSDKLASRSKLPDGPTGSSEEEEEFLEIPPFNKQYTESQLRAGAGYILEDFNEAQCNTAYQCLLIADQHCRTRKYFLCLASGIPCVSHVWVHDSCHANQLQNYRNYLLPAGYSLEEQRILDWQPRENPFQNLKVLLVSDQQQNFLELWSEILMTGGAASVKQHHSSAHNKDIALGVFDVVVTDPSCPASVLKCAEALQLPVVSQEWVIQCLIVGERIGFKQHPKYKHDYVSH

Binder	binding result
B1	no binding
B2	no binding
